Target: the molecule itself
Assay: native MS; nano-ESI, PKM2 in 200 mM ammonium acetate pH 6.8, with added saturating FBP (10 µM FBP to 10 µM PKM2; 10:1 FBP:PKM2 for the AlloHub mutants); also with 300 µM Phe added before or after FBP

| Protein | stoichiometry N | binding result |
| --- | --- | --- |
| PKM2(C358A) (enzyme, pyruvate kinase M2 (PKM2), Homo sapiens, Uniprot ID P14618-1; pET28a-His-PKM2(C358A), made from pET28a-His-PKM2(WT); also called AlloHubM C358A; source: E. coli BL21(DE3)pLysS, purified (HisTrap IMAC, thrombin cleavage, Superdex 200 SEC); not shown: His6, N-terminal, cleaved) not shown | 4 |  |
| PKM2(F244V) (enzyme, pyruvate kinase M2 (PKM2), Homo sapiens, Uniprot ID P14618-1; pET28a-His-PKM2(F244V), made from pET28a-His-PKM2(WT); also called AlloHubM F244V; source: E. coli BL21(DE3)pLysS, purified (HisTrap IMAC, thrombin cleavage, Superdex 200 SEC); not shown: His6, N-terminal, cleaved) not shown |  | binds |
| PKM2(K305Q) (enzyme, pyruvate kinase M2 (PKM2), Homo sapiens, Uniprot ID P14618-1; pET28a-His-PKM2(K305Q), made from pET28a-His-PKM2(WT); also called AlloHubM K305Q; source: E. coli BL21(DE3)pLysS, purified (HisTrap IMAC, thrombin cleavage, Superdex 200 SEC); not shown: His6, N-terminal, cleaved) not shown | 4 |  |
| PKM2(I124G) (enzyme, pyruvate kinase M2 (PKM2), Homo sapiens, Uniprot ID P14618-1; pET28a-His-PKM2(I124G), made from pET28a-His-PKM2(WT); also called AlloHubM I124G; source: E. coli BL21(DE3)pLysS, purified (HisTrap IMAC, thrombin cleavage, Superdex 200 SEC); not shown: His6, N-terminal, cleaved) not shown |  | binds |
| PKM2(A327S) (enzyme, pyruvate kinase M2 (PKM2), Homo sapiens, Uniprot ID P14618-1; pET28a-His-PKM2(A327S), made from pET28a-His-PKM2(WT); also called AlloHubM A327S; source: E. coli BL21(DE3)pLysS, purified (HisTrap IMAC, thrombin cleavage, Superdex 200 SEC); not shown: His6, N-terminal, cleaved) not shown | 4 |  |
